In the assay the target is VSV:H2-K^b (mouse | not stated) (UniProt P03521). Nature of the assay: micropipette adhesion frequency.
Chain of UniProt P03521 (P03521 whole entry, looked up): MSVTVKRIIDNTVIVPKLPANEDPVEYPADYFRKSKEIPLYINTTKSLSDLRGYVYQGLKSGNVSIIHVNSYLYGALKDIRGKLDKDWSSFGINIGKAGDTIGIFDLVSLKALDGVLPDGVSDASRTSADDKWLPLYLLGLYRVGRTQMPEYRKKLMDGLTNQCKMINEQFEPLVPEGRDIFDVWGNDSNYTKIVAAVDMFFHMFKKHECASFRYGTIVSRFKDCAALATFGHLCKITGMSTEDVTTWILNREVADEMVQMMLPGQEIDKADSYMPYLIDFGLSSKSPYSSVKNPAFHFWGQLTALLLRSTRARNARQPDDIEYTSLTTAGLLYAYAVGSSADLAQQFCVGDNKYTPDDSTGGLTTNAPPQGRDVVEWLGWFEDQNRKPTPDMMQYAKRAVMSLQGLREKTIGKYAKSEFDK

“CD8 on CD8+ T cells of OT-I mice (from UniProt P01731;P10300) (receptor)” returned a fold smaller 2D affinity than TCR–pMHC of 500 fold.

For the origin of these results see publication doi:10.1101/2022.09.11.507496.
